Results taken from US12617816B2 (priority 2019, dated 2026).
Where two headings read alike, the source gives them in different places.

Columns and labels:
[1] = mouse, in vivo
MOR [2] = test system: MOR; parameters: species or system mice; settings: in vivo
human mu-opioid receptor [3] = molecular target: T1, human mu-opioid receptor (Homo sapiens, UniProt P35372); experiment: cell-based; type: binding
T1 construct: host or cells: CHO-K1

in vivo = settings: mouse, iv
human mu-opioid receptor [4] = molecular target: T1, human mu-opioid receptor; type: cell-based
MOR [5] = molecular target: MOR (Homo sapiens, UniProt P35372)
[6] = in vivo; cited from earlier work

T1 sequence (P35372 whole entry): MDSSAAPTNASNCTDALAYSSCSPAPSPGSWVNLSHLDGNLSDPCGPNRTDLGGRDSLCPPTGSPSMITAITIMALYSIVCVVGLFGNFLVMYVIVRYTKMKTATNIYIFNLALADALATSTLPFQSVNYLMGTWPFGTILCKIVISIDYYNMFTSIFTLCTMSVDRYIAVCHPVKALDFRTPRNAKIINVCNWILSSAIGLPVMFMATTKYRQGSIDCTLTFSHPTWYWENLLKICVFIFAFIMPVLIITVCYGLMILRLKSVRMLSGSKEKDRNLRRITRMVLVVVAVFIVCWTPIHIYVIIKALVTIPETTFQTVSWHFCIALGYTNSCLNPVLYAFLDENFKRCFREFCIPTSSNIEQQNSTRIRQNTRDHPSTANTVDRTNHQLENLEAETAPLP
MOR (Homo sapiens, UniProt P35372), sequence (P35372 whole entry): as above

C[C@@H](NC(=O)[C@@H](N)Cc1ccc(O)cc1)C(=O)N[C@@H](Cc1ccccc1)C(=O)NCC(=O)N[C@@H](Cc1ccc(O)cc1)C(=O)N1CCC[C@H]1C(=O)N[C@@H](CCCCN)C(=O)N[C@@H](CSC1CC(=O)N(CCNC(=O)CCCCC[N+]2=C(/C=C/C3=C(Oc4ccc(S(=O)(=O)O)cc4)C(=C/C=C4/N(CCCCS(=O)(=O)O)c5ccc(S(=O)(=O)O)cc5C4(C)C)/CCC3)C(C)(C)c3cc(S(=O)(=O)[O-])ccc32)C1=O)C(N)=O (stereo partly drawn) [DRM-800, [Lys7]dermorphin-IRDye800CW]
tolerability of intravenous injection [1]: well-tolerated
distribution half-life (biexponential) ([1]; iv): 6.2 (4.9-8.6) min
elimination (β) half-life (biexponential) ([1]; iv): 45 (33-68) min
persistence in plasma ([1]; iv): at least one hour
plasma half-life (time in which the concentration of dye is 50% of initial) ([1]; iv): 12.6 min
ratio of enhancement, wildtype to knockout mouse (MOR [2]): 3.1 ×
enhancement in wildtype compared to knockout mice (MOR [2]; mouse): higher enhancement in the wildtype mice compared to knockout mice
IC50 (human mu-opioid receptor [3]): 3.5 nM
Ki (human mu-opioid receptor [3]): 0.64 nM
half-life (in vivo; distribution half-life (biexponential)): 3.3 min
half-life (in vivo; elimination (β) half-life (biexponential)): 70.8 min
half-life (in vivo; plasma half-life (time in which the concentration of dye is 50% of initial)): 7.95 min
displacement of retained DRM-800 by naloxone (human mu-opioid receptor [4]): cannot be displaced even at high concentrations of naloxone
Binding potential (BP) (MOR [5]): approximately 10

C=CCN1CC[C@]23c4c5ccc(O)c4O[C@H]2C(=O)CC[C@@]3(O)[C@H]1C5 [naloxone]
half-life [6]: 60 to 80 min
